The values that follow come from article PMC2785583 (The Journal of Biological Chemistry, 2009).

The data set “SDS-PAGE” deals with the molecule itself. The data set can be described thus: SDS-PAGE.
The target in data set [1] is Protein FAF (F. magna adhesion factor), recombinant, amino acids 28-616 (Finegoldia magna). The experiment in a line: SPR. A general note: SPR reads the build-up and loss of mass on a sensor chip optically.

B1: Recombinant human MIG/CXCL9 (monokine induced by gamma-interferon) (ligand, UniProt Q07325 23-125, looked up)
chain: TPVVRKGRCSCISTNQGTIHLQSLKDLKQFAPSPSCEKIEIIATLKNGVQTCLNPDSADVKELIKKWEKQVSQKKKQKNGKKHQKKKVLKVRKSQRSRQKKTT
With B1, in “SDS-PAGE”, the binding result is “binds”. Also, in data set [1], the Kd (usually the free concentration of one partner at which half of the binding sites on the other are occupied at equilibrium, for simple one-to-one binding) was 4.9 nM.
